US20220249640A1

Target: PD-1 (soluble, biotinylated, on sensors or coated on plates) (human) (UniProt Q15116)
Experiment: method not stated at the list; Octet curves in FIG. 29

Chain of PD-1 (soluble, biotinylated, on sensors or coated on plates) (human) (Q15116 25-167 limits assumed): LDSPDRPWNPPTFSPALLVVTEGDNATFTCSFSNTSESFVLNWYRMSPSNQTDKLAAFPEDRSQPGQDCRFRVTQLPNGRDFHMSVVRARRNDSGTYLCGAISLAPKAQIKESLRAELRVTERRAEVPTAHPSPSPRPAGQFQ

Kd: 0.1 nM
B1: PD1#3 scFv-Fc (Fc fusion, part only; not given: Fc, linker, domain order, not shown: another chain or arm of the molecule; a dimerising Fc or GST; small tags and cut ends)
VH: QVQLVQSGAEVKKPGSSVKVSCKTSGYTFNRFGLTWVRQAPGQGLEWMGWTNPYNGNTRYAQKFQGRVTMTTDTSTSTAYMELRSLRSDDTAMYFCARVVAVNGMDVWGQGTTVTVSS
VL: NFMLTQPHSVSESPGKTVTISCTRNSGSIAAYYVQWYQQRPGSSPTTVIYEDNQRPSGVPDRFSGSIDSSSNSASLTISGLKTEDEADYYCQSYDSSNLWVFGGGTKLTVL
